The text below walks through data of the RNAGym collection of RNA variant scans (doi:10.1073/pnas.2313332121).

B1: TPR t1 (parent)
chain: GACCAAUCUGCCCUCAGAGCUCGAGAACAUCUUCGGAUGCAGAGGAGGCAGGCUUCGGUGGCGCGAUAGCGCCAACGUCCUCAACCUCCAAUGCAUCCCACCACAUGAUGAUGCCUGAAGAGCCUUGGUUUUUUG

This data set covers variants of B1. As to the kind of experiment: polymerase ribozyme fitness, log enrichment relative to wild type (log ratio); higher = more active; in vitro selection for triplet polymerase activity. Summed up:
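Mutant libraries for each subunit of a heterodimeric triplet polymerase ribozyme were made by PCR and then transcribed. Each library underwent one round of in vitro selection in triplicate: annealing with a biotinylated primer, the partner subunit and triplets, frozen incubation at −7 °C, gel excision of extended constructs, streptavidin-bead capture and RT-PCR. Input and output libraries were Illumina-sequenced, and only genotypes with ≥10 input reads and ≥1 read per output were kept. Fitness is the logarithm, base 2, of genotype enrichment over wild-type enrichment, computed from inverse-variance-weighted replicate averages.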
For the variant GACCAAUCUGCCCUCAGAGCUCGAGAACAUCUUCGGAUGCAGAGGAGGCAGGCUUCGGUGGCGCGAUAGCGCCAACGUCCUCAACCUUCAAUACAUCCCACCACAUGAUGAUGCCUGAAGAGCCUUGGUUUUUUG, the “polymerase ribozyme fitness (log ratio)” value was -0.936. Then GACCAAUCUGCCCUCAGAGCUCGAGAACAUCUUCGGAUGCAGAGGAGGCAGGCUUCGGUGGCGCGAUAGCGCCAACGUCCUCAACCUUCAAUGCAUCCCACCACAUGAUGAUGCCUAAAGAGCCUUGGUUUUUUG, with -1.32; and GACCAAUCUGCCCUCAGAGCUCGAGAACAUCUUCGGAUGCAGAGGAGGCAGGCUUCGGUGGCGCGAUAGCGCCAACGUCCUCAACCCCCAAUGCAUCCCACCACAUGAUGAUGGCUGAAGAGCCUUGGUUUUUUG, with -2. Then GACCAAUCUGCCCUCAGAGCUCGAGAACAUCUUCGGAUGCAGAGGAGGCAGGCUUCGGUGGCGCGAUAGCGCCAACGUCCUCAACCGCCAUUGCAUCCCACCACAUGAAGAUGCCUGAAGAGCCCUGGUUUUUUG, with -5.71; and GACCAAUCUGCCCUCAGAGCUCGAGAACAUCUUCGGAUGCAGAGGAGGCAGGCUUCGGUGGCGCGAUAGCGCCAACGUCCUCAACCCCCAAUGCAUCCCACCACAUUAUGAUGCCUGAAGAGCCUUGGUUUUUUG, with -4.55; and GACCAAUCUGCCCUCAGAGCUCGAGAACAUCUUCGGAUGCAGAGGAGGCAGGCUUCGGUGGCGCGAUAGCGCCAACGUCCUCAACCUACAAUGCAUCCCAACACAUGAUGAUGCCUGAAGAGCCUUGGUUUUUUG, with -1.2. Regarding GACCAAUCUGCCCUCAGAGCUCGAGAACAUCUUCGGAUGCAGAGGAGGCAGGCUUCGGUGGCGCGAUAGCGCCAACGUCCUCAACCCCCAAUGCAUCCCACCACAUGAUGAUGCCUGAAGAGCCUUGGUCUUUUG, the “polymerase ribozyme fitness (log ratio)” value turned out to be 0.298. Then GACCAAUCUGCCCUCAGAGCUCGAGAACAUCUUCGGAUGCAGAGGAGGCAGGCUUCGGUGGCGCGAUAGCGCCAACGUCCUCAACCUUCAAUGCAUCCCACCACAUGAUGAUGCCUGAAGAGUCUUGGUUUUUUG, with 0.953.

For the variant GACCAAUCUGCCCUCAGAGCUCGAGAACAUCUUCGGAUGCAGAGGAGGCAGGCUUCGGUGGCGCGAUAGCGCCAACGUCCUCAACCUUCAAUGCAUCCCACCACAUGAUGAUGCCUGAAGAGACUUGGUUUUUUG, the “polymerase ribozyme fitness (log ratio)” value was 1.43. Then GACCAAUCUGCCCUCAGAGCUCGAGAACAUCUUCGGAUGCAGAGGAGGCAGGCUUCGGUGGCGCGAUAGCGCCAACGUCCUCAACCUUCAAUGCAUCCCACCACAUGAUGAGGCCUGAAGAGCCUUGGUUUUUUG, with 0.74; and GACCAAUCUGCCCUCAGAGCUCGAGAACAUCUUCGGAUGCAGAGGAGGCAGGCUUCGGUGGCGCGAUAGCGCCAACGUCCUCAACCUUCAAUGCAUCCCACCACAUGAUGAUGCCUGAAUAGCCUUGGUUUCUUG, with 0.106. Then GACCAAUCUGCCCUCAGAGCUCGAGAACAUCUUCGGAUGCAGAGGAGGCAGGCUUCGGUGGCGCGAUAGCGCCAACGUCCUCAACCCCCAAUGCAUCCCACCACGUGAUGAUGCCUGAAGAGCCUUGGUUUUUUG, with -1.78. Then GACCAAUCUGCCCUCAGAGCUCGAGAACAUCUUCGGAUGCAGAGGAGGCAGGCUUCGGUGGCGCGAUAGCGCCAACGUCCUCAACCUUCAAUGCAUCCCACCACAUGAUGAUGCCUGAAGCGCCUUGGUUUUUUG, with 1.77.

Consider GACCAAUCUGCCCUCAGAGCUCGAGAACAUCUUCGGAUGCAGAGGAGGCAGGCUUCGGUGGCGCGAUAGCGCCAACGUCCUCAACCGCCAAUACAUCCCACCACAUGAUGAAGCCUGAAGAGCCUUGGUUUUAUG, for which the “polymerase ribozyme fitness (log ratio)” value turned out to be 1.36. As to GACCAAUCUGCCCUCAGAGCUCGAGAACAUCUUCGGAUGCAGAGGAGGCAGGCUUCGGUGGCGCGAUAGCGCCAACGUCCUCAACCGCCAAUGCAUCCCACAACAUGAUGAUGCCUGAAGAGCGUUGGUUUUUUG, the “polymerase ribozyme fitness (log ratio)” value was 0.127. Then GACCAAUCUGCCCUCAGAGCUCGAGAACAUCUUCGGAUGCAGAGGAGGCAGGCUUCGGUGGCGCGAUAGCGCCAACGUCCUCAACCCCCAAUGCAUCCCACCACAUGAUGAUGCCUGAAGAGCUUUGGUUUUUUG, with 0.583. Then GACCAAUCUGCCCUCAGAGCUCGAGAACAUCUUCGGAUGCAGAGGAGGCAGGCUUCGGUGGCGCGAUAGCGCCAACGUCCUCAACCUUCAAUACAUCCCACCACAUGGUGAUGCUUGUAGAGCCUUGGUUUUUUC, with -4.45; and GACCAAUCUGCCCUCAGAGCUCGAGAACAUCUUCGGAUGCAGAGGAGGCAGGCUUCGGUGGCGCGAUAGCGCCAACGUCCUCAACCUGCAAUGCAUCCCACCACAUGAUGAUGCCUGAAAAGCCUUGGUUUUUUG, with -1.21; and GACCAAUCUGCCCUCAGAGCUCGAGAACAUCUUCGGAUGCAGAGGAGGCAGGCUUCGGUGGCGCGAUAGCGCCAACGUCCUCAACCUGCAAUGCAUCCCACCACAUGAUGAUGCCUGAACAGCCUUGGUUUUUUG, with -0.00486. Then GACCAAUCUGCCCUCAGAGCUCGAGAACAUCUUCGGAUGCAGAGGAGGCAGGCUUCGGUGGCGCGAUAGCGCCAACGUCCUCAACCUACAAUGCAUUCCACCACAUGAACAUGCCUGAAGAGCCUUGGUUUUUUG, with -6.36; and GACCAAUCUGCCCUCAGAGCUCGAGAACAUCUUCGGAUGCAGAGGAGGCAGGCUUCGGUGGCGCGAUAGCGCCAACGUCCUCAACCCCCAAUGCAUCACACCACAUGAUGAUGCCUGAAGAGCCUUGGUUUUUUG, with -4.87.
